In paper PMC7755894 one finds fold decrease in pSTAT5 in human CD4+ CD25+ Treg cells (PBMCs, 15 min data, which are given here for one substance.

The target of this assay is recombinant hCD25 (human IL-2Rα) (human) (UniProt P01589).
Chain of UniProt P01589 (P01589 22-240): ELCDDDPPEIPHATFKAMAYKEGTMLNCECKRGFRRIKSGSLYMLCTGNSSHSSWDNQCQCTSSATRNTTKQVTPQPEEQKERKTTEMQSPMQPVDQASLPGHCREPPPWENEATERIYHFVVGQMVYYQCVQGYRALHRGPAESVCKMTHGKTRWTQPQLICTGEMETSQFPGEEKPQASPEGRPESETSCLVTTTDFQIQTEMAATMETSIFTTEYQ

Chain of NARA1leukin (P60568 whole entry, looked up): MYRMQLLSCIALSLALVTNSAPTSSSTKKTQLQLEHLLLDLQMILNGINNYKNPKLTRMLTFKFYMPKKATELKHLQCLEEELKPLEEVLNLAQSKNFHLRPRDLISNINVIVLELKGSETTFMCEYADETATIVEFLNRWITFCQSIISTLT

For “NARA1leukin (from UniProt P60568 97-153; P60568 22-96)”, the fold decrease in pSTAT5 in human CD4+ CD25+ Treg cells (PBMCs, 15 min at 37 °C); stimulation by NARA1leukin compared to hIL-2/NARA1 complexes is 30 fold.
